Here are results for 25 variants from the supplement of paper PMC7125110.

± gives the standard error. Variants at the floor of the assay were thinned out.

The chains are these.
B1: glmS ribozyme (parent)
chain: AUAAAAGCGCCAGAACUACAGAAAUGUAGUUGACGAGGAGGAGGUUUAUCGAAUUUUCGGCGGAUGCCUCCAAA

Conditions in all cases: with glucosamine-6-phosphate
Variants of B1 are the subject of data set [1]. Kind of data set: self-cleavage kobs at 160 uM GlcN6P; higher = faster cleavage; RNA array. The method, boiled down: (§1)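 Barcoded ribozyme variants on sequenced MiSeq chips were transcribed in situ by E. coli RNA polymerase and followed at 37 °C through a hybridised Cy3 probe. Glucosamine-6-phosphate at 40 μM to 10 mM in HEPES/KCl/Mg(OAc)2 buffer was flowed in, and tiles were imaged over ~14 h. Signals were normalised to baseline and to non-cleaving reference variants, and per-tile medians were fit to one- or two-exponential decays to give kobs. Weighted Michaelis–Menten fits across concentrations gave kcat and KM.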

Data set [2] covers variants of B1. Briefly: self-cleavage kobs at 640 uM GlcN6P; higher = faster cleavage; RNA array. The method, boiled down:
as §1

Data set [3] covers variants of B1. Briefly: self-cleavage kobs at 2500 uM GlcN6P; higher = faster cleavage; RNA array. The method, boiled down: as §1
Data set [4] covers variants of B1. Briefly: self-cleavage kobs at 10000 uM GlcN6P; higher = faster cleavage; RNA array. The essentials:
as §1

Data set [5] covers variants of B1. Kind of data set: self-cleavage kobs at 40 uM GlcN6P; higher = faster cleavage; RNA array. The essentials:
as §1

Consider A14G G35A, for which, in the data set with glucosamine-6-phosphate [1], the “self-cleavage kobs at 160 uM GlcN6P” value is less than 1e-05 s⁻¹. The “self-cleavage kobs at 640 uM GlcN6P” value in the data set with glucosamine-6-phosphate [2] is less than 1e-05 s⁻¹. For the same variant, the “self-cleavage kobs at 2500 uM GlcN6P” value in the data set with glucosamine-6-phosphate [3] was less than 1e-05 s⁻¹. The “self-cleavage kobs at 10000 uM GlcN6P” value with glucosamine-6-phosphate [4] is less than 1e-05 s⁻¹.
As to C16U U55C, the “self-cleavage kobs at 160 uM GlcN6P” value in the data set with glucosamine-6-phosphate [1] was 0.00153 ± 0.00037 s⁻¹. In addition, the “self-cleavage kobs at 2500 uM GlcN6P” value with glucosamine-6-phosphate [3] is 0.00585 ± 0.0013 s⁻¹.
Consider A39G A42U A64C, for which the “self-cleavage kobs at 160 uM GlcN6P” value with glucosamine-6-phosphate [1] was less than 1e-05 s⁻¹. For the same variant, the “self-cleavage kobs at 640 uM GlcN6P” value in the data set with glucosamine-6-phosphate [2] is less than 1e-05 s⁻¹. Besides, the “self-cleavage kobs at 2500 uM GlcN6P” value in the data set with glucosamine-6-phosphate [3] is less than 1e-05 s⁻¹.
In the case of C8A A33U A64G C67U C71G, in the data set with glucosamine-6-phosphate [1], the “self-cleavage kobs at 160 uM GlcN6P” value was less than 1e-05 s⁻¹.
Consider A12U A14G A52G, for which, in the data set with glucosamine-6-phosphate [5], the “self-cleavage kobs at 40 uM GlcN6P” value came to 0.000148 ± 3e-05 s⁻¹. Moreover, the “self-cleavage kobs at 2500 uM GlcN6P” value with glucosamine-6-phosphate [3] was found to be 0.00387 ± 0.0018 s⁻¹. For the same variant, the “self-cleavage kobs at 10000 uM GlcN6P” value with glucosamine-6-phosphate [4] is 0.00726 ± 0.0014 s⁻¹.
For G9A U47C, the “self-cleavage kobs at 40 uM GlcN6P” value with glucosamine-6-phosphate [5] is less than 1e-05 s⁻¹. The “self-cleavage kobs at 160 uM GlcN6P” value with glucosamine-6-phosphate [1] is less than 1e-05 s⁻¹. Moreover, the “self-cleavage kobs at 640 uM GlcN6P” value with glucosamine-6-phosphate [2] is less than 1e-05 s⁻¹. In the data set with glucosamine-6-phosphate [3], the “self-cleavage kobs at 2500 uM GlcN6P” value was less than 1e-05 s⁻¹.
In the case of G7C C34U, the “self-cleavage kobs at 160 uM GlcN6P” value with glucosamine-6-phosphate [1] was less than 1e-05 s⁻¹. The “self-cleavage kobs at 640 uM GlcN6P” value in the data set with glucosamine-6-phosphate [2] is less than 1e-05 s⁻¹. In the data set with glucosamine-6-phosphate [3], the “self-cleavage kobs at 2500 uM GlcN6P” value is less than 1e-05 s⁻¹. Also, the “self-cleavage kobs at 10000 uM GlcN6P” value with glucosamine-6-phosphate [4] was less than 1e-05 s⁻¹.
For the variant C11G A14C U69A, the “self-cleavage kobs at 160 uM GlcN6P” value with glucosamine-6-phosphate [1] came to 0.000527 ± 0.00014 s⁻¹. For the same variant, in the data set with glucosamine-6-phosphate [3], the “self-cleavage kobs at 2500 uM GlcN6P” value is 9.25e-05 ± 3.6e-05 s⁻¹.
For G29U U65A C68G, the “self-cleavage kobs at 160 uM GlcN6P” value in the data set with glucosamine-6-phosphate [1] was found to be 5.02e-05 ± 1.1e-05 s⁻¹. Moreover, in the data set with glucosamine-6-phosphate [2], the “self-cleavage kobs at 640 uM GlcN6P” value was determined as 6.79e-05 ± 1.4e-05 s⁻¹. For the same variant, in the data set with glucosamine-6-phosphate [3], the “self-cleavage kobs at 2500 uM GlcN6P” value turned out to be 3.55e-05 ± 1.3e-05 s⁻¹.
On to G35A C68U, for which the “self-cleavage kobs at 160 uM GlcN6P” value with glucosamine-6-phosphate [1] is less than 1e-05 s⁻¹. For the same variant, in the data set with glucosamine-6-phosphate [3], the “self-cleavage kobs at 2500 uM GlcN6P” value is less than 1e-05 s⁻¹.
Turning to G44A U54C U65G C68G, the “self-cleavage kobs at 160 uM GlcN6P” value with glucosamine-6-phosphate [1] is less than 1e-05 s⁻¹. Also, in the data set with glucosamine-6-phosphate [2], the “self-cleavage kobs at 640 uM GlcN6P” value was less than 1e-05 s⁻¹. In the data set with glucosamine-6-phosphate [3], the “self-cleavage kobs at 2500 uM GlcN6P” value is less than 1e-05 s⁻¹.
Take A14G G35A U47C C67A: the “self-cleavage kobs at 160 uM GlcN6P” value with glucosamine-6-phosphate [1] was less than 1e-05 s⁻¹. The “self-cleavage kobs at 640 uM GlcN6P” value in the data set with glucosamine-6-phosphate [2] is less than 1e-05 s⁻¹.
Take C16G U46A C50A U69G: the “self-cleavage kobs at 160 uM GlcN6P” value in the data set with glucosamine-6-phosphate [1] was found to be 0.000562 ± 0.00018 s⁻¹.
For G38C G59C C67G, the “self-cleavage kobs at 160 uM GlcN6P” value with glucosamine-6-phosphate [1] was less than 1e-05 s⁻¹. Also, in the data set with glucosamine-6-phosphate [3], the “self-cleavage kobs at 2500 uM GlcN6P” value is less than 1e-05 s⁻¹.
For the variant A15U U31C C50G, in the data set with glucosamine-6-phosphate [5], the “self-cleavage kobs at 40 uM GlcN6P” value was 5.26e-05 ± 2.5e-05 s⁻¹.
Consider C11U A42U G43U A53G C68G, for which the “self-cleavage kobs at 160 uM GlcN6P” value with glucosamine-6-phosphate [1] came out at 0.0001 ± 3.7e-05 s⁻¹. For the same variant, the “self-cleavage kobs at 640 uM GlcN6P” value with glucosamine-6-phosphate [2] was found to be 0.000213 ± 6.4e-05 s⁻¹. For the same variant, the “self-cleavage kobs at 2500 uM GlcN6P” value in the data set with glucosamine-6-phosphate [3] stood at 0.0001 ± 3.5e-05 s⁻¹.
Consider G13U U31C A33U G41A G43C, for which the “self-cleavage kobs at 160 uM GlcN6P” value in the data set with glucosamine-6-phosphate [1] is less than 1e-05 s⁻¹.
Turning to A6C A12C A36C G43A G51U C70G, in the data set with glucosamine-6-phosphate [1], the “self-cleavage kobs at 160 uM GlcN6P” value was less than 1e-05 s⁻¹. Further, the “self-cleavage kobs at 640 uM GlcN6P” value with glucosamine-6-phosphate [2] was less than 1e-05 s⁻¹.
For the variant C34A G37C A48C, the “self-cleavage kobs at 40 uM GlcN6P” value in the data set with glucosamine-6-phosphate [5] was less than 1e-05 s⁻¹. Moreover, the “self-cleavage kobs at 10000 uM GlcN6P” value with glucosamine-6-phosphate [4] was less than 1e-05 s⁻¹.
G13U A14U C58A C67U: in the data set with glucosamine-6-phosphate [1], the “self-cleavage kobs at 160 uM GlcN6P” value was found to be 5.09e-05 ± 1.8e-05 s⁻¹. In addition, in the data set with glucosamine-6-phosphate [2], the “self-cleavage kobs at 640 uM GlcN6P” value is 0.000194 ± 4.3e-05 s⁻¹. In addition, the “self-cleavage kobs at 2500 uM GlcN6P” value with glucosamine-6-phosphate [3] was 0.000334 ± 7.5e-05 s⁻¹.
For G9A U45C, the “self-cleavage kobs at 40 uM GlcN6P” value with glucosamine-6-phosphate [5] was less than 1e-05 s⁻¹. For the same variant, the “self-cleavage kobs at 160 uM GlcN6P” value with glucosamine-6-phosphate [1] is less than 1e-05 s⁻¹. In addition, the “self-cleavage kobs at 10000 uM GlcN6P” value in the data set with glucosamine-6-phosphate [4] is less than 1e-05 s⁻¹.
With G7A U54G, the “self-cleavage kobs at 160 uM GlcN6P” value with glucosamine-6-phosphate [1] was less than 1e-05 s⁻¹. The “self-cleavage kobs at 10000 uM GlcN6P” value with glucosamine-6-phosphate [4] is 4.41e-05 ± 1.5e-05 s⁻¹.
As to G37A G62C, the “self-cleavage kobs at 160 uM GlcN6P” value in the data set with glucosamine-6-phosphate [1] is less than 1e-05 s⁻¹. Besides, the “self-cleavage kobs at 640 uM GlcN6P” value in the data set with glucosamine-6-phosphate [2] is less than 1e-05 s⁻¹. Further, the “self-cleavage kobs at 2500 uM GlcN6P” value in the data set with glucosamine-6-phosphate [3] is less than 1e-05 s⁻¹. Besides, the “self-cleavage kobs at 10000 uM GlcN6P” value in the data set with glucosamine-6-phosphate [4] was less than 1e-05 s⁻¹.
Regarding U31C G32C A33U C34A U49A, the “self-cleavage kobs at 160 uM GlcN6P” value in the data set with glucosamine-6-phosphate [1] was less than 1e-05 s⁻¹. The “self-cleavage kobs at 2500 uM GlcN6P” value in the data set with glucosamine-6-phosphate [3] was less than 1e-05 s⁻¹. In addition, the “self-cleavage kobs at 10000 uM GlcN6P” value with glucosamine-6-phosphate [4] is less than 1e-05 s⁻¹.
On to A12G G41U G51C C71A, for which the “self-cleavage kobs at 160 uM GlcN6P” value with glucosamine-6-phosphate [1] is less than 1e-05 s⁻¹. In addition, the “self-cleavage kobs at 640 uM GlcN6P” value with glucosamine-6-phosphate [2] is less than 1e-05 s⁻¹. Besides, the “self-cleavage kobs at 2500 uM GlcN6P” value with glucosamine-6-phosphate [3] was less than 1e-05 s⁻¹.
